Reference: PMC7550751, “Application of Force to a Syndecan-4 Containing Complex With Thy-1–αVβ3 Integrin Accelerates Neurite Retraction” (Frontiers in Molecular Biosciences, 2020)
Residue numbers refer to the chain shown, from its start. Each block holds one molecule with its values, some of them ahead of it.

Assays:
[1] = target: Commercially purified human Syndecan (ectodomain)-4-Fc (UniProt P31431); experiment: optical tweezers (miniTweezers) force-ramp adhesion frequency assay; conditions: loading rate 10 pN/s; Hepes buffer (10 mM Hepes, pH 7.4) containing 100 mM NaCl and 1 mM MgCl2 at 25°C; parent: est. 0.79; read off a plot
Thy-1-Fc wild type = target: T1, Thy-1-Fc wild type (UniProt P01831 20-131); experiment: optical tweezers force spectroscopy (constant-force bond lifetime assay); miniTweezers; Thy-1-Fc on the 2.1 μm bead held by a micropipette; αVβ3-Fc, Syndecan-4-Fc or both on the 3.1 μm trapped bead (controls with TRAIL-R2-Fc added); constant forces 10, 20, 30, 40 and 50 pN; lifetimes fitted to the Bell model for values at zero force; 10 mM Hepes pH 7.4, 100 mM NaCl, 1 mM MgCl2, 25°C; conditions: both partners purified
T1 construct: In the functional rows m1 stands for Thy-1 on the surface of CAD neuronal cells; also called Thy-1(RLD)-Fc; CD90; source: purified; obtained as previously reported (Schneider, 2000; Leyton et al., 2001)
T1 sequence (looked up): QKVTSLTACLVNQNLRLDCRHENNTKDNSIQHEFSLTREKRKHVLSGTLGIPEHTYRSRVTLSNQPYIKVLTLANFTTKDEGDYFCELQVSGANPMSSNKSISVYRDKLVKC

[2] = target: T2, Commercially purified human Syndecan (ectodomain)-4-Fc, P31431; experiment: optical tweezers (miniTweezers) force-ramp adhesion frequency assay; conditions: chain shown with the change; loading rate 10 pN/s; Hepes buffer (10 mM Hepes, pH 7.4) containing 100 mM NaCl and 1 mM MgCl2 at 25°C; parent: est. 0.79; read off a plot
T2 chain: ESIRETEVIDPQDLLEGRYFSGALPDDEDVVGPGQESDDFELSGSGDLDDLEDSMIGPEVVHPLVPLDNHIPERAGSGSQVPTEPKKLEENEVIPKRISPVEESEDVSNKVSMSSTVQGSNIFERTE

other: adhesion frequency [1]: 0.4
Molecule: Thy-1-Fc wild type (from UniProt P01831) AEAAA

bond lifetime at zero force (τ0) (Thy-1-Fc wild type): 6.79 ± 1.49 s
B1: Recombinant αVβ3-Fc integrin (Fc fusion)
chain 1: FNLDVDSPAEYSGPEGSYFGFAVDFFVPSASSRMFLLVGAPKANTTQPGIVEGGQVLKCDWSSTRRCQPIEFDATGNRDYAKDDPLEFKSHQWFGASVRSKQDKILACAPLYHWRTEMKQEREPVGTCFLQDGTKTVEYAPCRSQDIDADGQGFCQGGFSIDFTKADRVLLGGPGSFYWQGQLISDQVAEIVSKYDPNVYSIKYNNQLATRTAQAIFDDSYLGYSVAVGDFNGDGIDDFVSGVPRAARTLGMVYIYDGKNMSSLYNFTGEQMAAYFGFSVAATDINGDDYADVFIGAPLFMDRGSDGKLQEVGQVSVSLQRASGDFQTTKLNGFEVFARFGSAIAPLGDLDQDGFNDIAIAAPYGGEDKKGIVYIFNGRSTGLNAVPSQILEGQWAARSMPPSFGYSMKGATDIDKNGYPDLIVGAFGVDRAILYRARPVITVNAGLEVYPSILNQDNKTCSLPGTALKVSCFNVRFCLKADGKGVLPRKLNFQVELLLDKLKQKGAIRRALFLYSRSPSHSKNMTISRGGLMQCEELIAYLRDESEFRDKLTPITIFMEYRLDYRTAADTTGLQPILNQFTPANISRQAHILLDCGEDNVCKPKLEVSVDSDQKKIYIGDDNPLTLIVKAQNQGEGAYEAELIVSIPLQADFIGVVRNNEALARLSCAFKTENQTRQVVCDLGNPMKAGTQLLAGLRFSVHQQSEMDTSVKFDLQIQSSNLFDKVSPVVSHKVDLAVLAAVEIRGVSSPDHVFLPIPNWEHKENPETEEDVGPVVQHIYELRNNGPSSFSKAMLHLQWPYKYNNNTLLYILHYDIDGPMNCTSDMEINPLRIKISSLQTTEKNDTVAGQGERDHLITKRDLALSEGDIHTLGCGVAQCLKIVCQVGRLDRGKSAILYVKSLLWTETFMNKENQNHSYSLKSSASFNVIEFPYKNLPIEDITNSTLVTTNVTWGIQPAPMPV
chain 2: GPNICTTRGVSSCQQCLAVSPMCAWCSDEALPLGSPRCDLKENLLKDNCAPESIEFPVSEARVLEDRPLSDKGSGDSSQVTQVSPQRIALRLRPDDSKNFSIQVRQVEDYPVDIYYLMDLSYSMKDDLWSIQNLGTKLATQMRKLTSNLRIGFGAFVDKPVSPYMYISPPEALENPCYDMKTTCLPMFGYKHVLTLTDQVTRFNEEVKKQSVSRNRDAPEGGFDAIMQATVCDEKIGWRNDASHLLVFTTDAKTHIALDGRLAGIVQPNDGQCHVGSDNHYSASTTMDYPSLGLMTEKLSQKNINLIFAVTENVVNLYQNYSELIPGTTVGVLSMDSSNVLQLIVDAYGKIRSKVELEVRDLPEELSLSFNATCLNNEVIPGLKSCMGLKIGDTVSFSIEAKVRGCPQEKEKSFTIKPVGFKDSLIVQVTFDCDCACQAQAEPNSHRCNNGNGTFECGVCRCGPGWLGSQCECSEEDYRPSQQDECSPREGQPVCSQRGECLCGQCVCHSSDFGKITGKYCECDDFSCVRYKGEMCSGHGQCSCGDCLCDSDWTGYYCNCTTRTDTCMSSNGLLCSGRGKCECGSCVCIQPGSYGDTCEKCPTCPDACTFKKECVECKKFDRGALHDENTCNRYCRDEIESVKELKDTGKDAVNCTYKNEDDCVVRFQYYEDSSGKSILYVVEEPECPKGPD
notes: integrin αV, ectodomain; integrin β3, ectodomain; Construct: Burgos-Bravo et al., 2018; also called αVβ3 integrin; source: HEK293T, transiently transfected, secreted into serum-free medium; purified as published (Burgos-Bravo et al., 2018) for optical tweezers; used as medium in the neurite retraction assay

bond lifetime at zero force (τ0) (Thy-1-Fc wild type): 11.6 ± 1.34 s
B2: αVβ3-Fc + Syndecan-4-Fc (both on one bead) (complex)
chain 1: B1 chain 1
chain 2: B1 chain 2
chain 3: T2 chain
notes: integrin αV, ectodomain, as in m5; integrin β3, ectodomain, as in m5; Syndecan-4, human, ectodomain, as in m6; Not a complex formed beforehand: m5 and m6 were put together on bead 2 and met Thy-1-Fc on bead 1; also called αVβ3 integrin + Syndecan-4; source: αVβ3-Fc: HEK293T, purified; Syndecan-4-Fc: commercially purified; both attached to one protein G-coated bead; copies: + +

bond lifetime at zero force (τ0) (Thy-1-Fc wild type): 3.06 ± 0.22 s
B3: Commercially purified human Syndecan (ectodomain)-4-Fc (Fc fusion, UniProt P31431 19-145, looked up)
chain: T2 chain
notes: Syndecan-4, human, ectodomain; Heparan sulfate proteoglycan; also called Syndecan-4-Fc; Synd-4-Fc

other: adhesion frequency [2]: 0.81
B4: Thy-1-Fc wild type, P01831 RLE (protein)
chain: T1 sequence (looked up) with D18E
